Source: article PMC8927045, “MAP3K1 Variant Causes Hyperactivation of Wnt4/β-Catenin/FOXL2 Signaling Contributing to 46,XY Disorders/Differences of Sex Development” (Frontiers in Genetics, 2022)

Assays:
[1] = molecular target: T1, RHOA-LgBiT-N (RhoA fused to LgBiT) (human (from the RefSeq entry NM_001664; …, UniProt P61586 1-193); experiment: split reporter (BiFC, NanoBiT); NanoBiT in HEK293T cells co-transfected with SmBiT and LgBiT fusion plasmids (500 ng DNA in all, 24-well plate); 24 h after transfection medium replaced by OPTI-MEM, substrate added, signal read for 30 min; negative control: SmBiT-MAP3K1 plasmid alone; details: partners not purified
T1 construct: RhoA, RHOA gene (NM_001664); On which end of RhoA the LgBiT stands is not clear from the two names used; also called LgBit-RhoA-N; source: HEK293T, transfected, in cells
T1 sequence (P61586 whole entry, the tested form may be a part): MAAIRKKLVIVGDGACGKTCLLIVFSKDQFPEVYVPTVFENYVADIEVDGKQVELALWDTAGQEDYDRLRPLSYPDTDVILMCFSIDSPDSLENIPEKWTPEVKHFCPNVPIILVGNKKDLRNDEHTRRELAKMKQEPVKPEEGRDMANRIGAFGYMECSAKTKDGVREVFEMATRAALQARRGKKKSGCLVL

RHOA-3×Flag = molecular target: T2, RHOA-3×Flag (human (from the RefSeq entry NM_001664; …, UniProt P61586 1-193); experiment: co-IP; HEK293T cells co-transfected with MAP3K1-3×HA and RHOA-3×Flag; 48 h after transfection lysed in modified RIPA buffer; anti-Flag or anti-HA magnetic beads overnight at 4°C; blot with anti-HA or anti-FLAG; ratio of Co-IP to IP band intensity; details: partners not purified
T2 construct: RhoA, RHOA gene (NM_001664) cloned into p3×Flag-CMV-14; also called RhoA-Flag; source: HEK293T, transfected, in lysate
T2 sequence (P61586 whole entry): as the sequence (P61586 whole entry, the tested form may be a part) above

fold of the wild type's NanoBiT signal [1] | fold of the wild type's ratio of Co-IP to IP signal (RHOA-3×Flag) [times wild type] | Binder
3.19 ± 0.18 fold of wild type | – | MAP3K1^R186G-SmBiT-C (R186G variant of MAP3K1 fused to SmBiT) (enzyme, human, UniProt Q13233 1-1512, looked up, Same construct as m1 with the patient variant; The end of the SmBiT is not clear; also called MAP3K1-Mut; p.R186G variant; source: HEK293T, transfected, in cells) MAAAAGNRASSSGFPGARATSPEAGGGGGALKASSAPAAAAGLLREAGSGGRERADWRRRQLRKVRSVELDQLPEQPLFLAASPPASSTSPSPEPADAAGSGTGFQPVAVPPPHGAASRGGAHLTESVAAPDSGASSPAAAEPGEKRAPAAEPSPAAAPAGREMENKETLKGLHKMDDRPEERMIGEKLKATCMPAWKHEWLERRNRRGPVVVKPIPVKGDGSEMNHLAAESPGEVQASAASPASKGRRSPSPGNSPSGRTVKSESPGVRRKRVSPVPFQSGRITPPRRAPSPDGFSPYSPEETNRRVNKVMRARLYLLQQIGPNSFLIGGDSPDNKYRVFIGPQNCSCARGTFCIHLLFVMLRVFQLEPSDPMLWRKTLKNFEVESLFQKYHSRRSSRIKAPSRNTIQKFVSRMSNSHTLSSSSTSTSSSENSIKDEEEQMCPICLLGMLDEESLTVCEDGCRNKLHHHCMSIWAEECRRNREPLICPLCRSKWRSHDFYSHELSSPVDSPSSLRAAQQQTVQQQPLAGSRRNQESNFNLTHYGTQQIPPAYKDLAEPWIQVFGMELVGCLFSRNWNVREMALRRLSHDVSGALLLANGESTGNSGGSSGSSPSGGATSGSSQTSISGDVVEACCSVLSMVCADPVYKVYVAALKTLRAMLVYTPCHSLAERIKLQRLLQPVVDTILVKCADANSRTSQLSISTLLELCKGQAGELAVGREILKAGSIGIGGVDYVLNCILGNQTESNNWQELLGRLCLIDRLLLEFPAEFYPHIVSTDVSQAEPVEIRYKKLLSLLTFALQSIDNSHSMVGKLSRRIYLSSARMVTTVPHVFSKLLEMLSVSSSTHFTRMRRRLMAIADEVEIAEAIQLGVEDTLDGQQDSFLQASVPNNYLETTENSSPECTVHLEKTGKGLCATKLSASSEDISERLASISVGPSSSTTTTTTTTEQPKPMVQTKGRPHSQCLNSSPLSHHSQLMFPALSTPSSSTPSVPAGTATDVSKHRLQGFIPCRIPSASPQTQRKFSLQFHRNCPENKDSDKLSPVFTQSRPLPSSNIHRPKPSRPTPGNTSKQGDPSKNSMTLDLNSSSKCDDSFGCSSNSSNAVIPSDETVFTPVEEKCRLDVNTELNSSIEDLLEASMPSSDTTVTFKSEVAVLSPEKAENDDTYKDDVNHNQKCKEKMEAEEEEALAIAMAMSASQDALPIVPQLQVENGEDIIIIQQDTPETLPGHTKAKQPYREDTEWLKGQQIGLGAFSSCYQAQDVGTGTLMAVKQVTYVRNTSSEQEEVVEALREEIRMMSHLNHPNIIRMLGATCEKSNYNLFIEWMAGGSVAHLLSKYGAFKESVVINYTEQLLRGLSYLHENQIIHRDVKGANLLIDSTGQRLRIADFGAAARLASKGTGAGEFQGQLLGTIAFMAPEVLRGQQYGRSCDVWSVGCAIIEMACAKPPWNAEKHSNHLALIFKIASATTAPSIPSHLSPGLRDVALRCLELQPQDRPPSRELLKHPVFRTTW
– | 2.57 | MAP3K1^R186G-3×HA (enzyme, human, UniProt Q13233 1-1512, looked up, human MAP3K1, full-length cDNA NM_005921.2 with the patients' variant c.556A>G, cloned into pcDNA3.1(+)-3×HA; Same construct as m7 with the patient variant; also called R186G variant; source: HEK293T, transfected, in lysate) MAAAAGNRASSSGFPGARATSPEAGGGGGALKASSAPAAAAGLLREAGSGGRERADWRRRQLRKVRSVELDQLPEQPLFLAASPPASSTSPSPEPADAAGSGTGFQPVAVPPPHGAASRGGAHLTESVAAPDSGASSPAAAEPGEKRAPAAEPSPAAAPAGREMENKETLKGLHKMDDRPEERMIGEKLKATCMPAWKHEWLERRNRRGPVVVKPIPVKGDGSEMNHLAAESPGEVQASAASPASKGRRSPSPGNSPSGRTVKSESPGVRRKRVSPVPFQSGRITPPRRAPSPDGFSPYSPEETNRRVNKVMRARLYLLQQIGPNSFLIGGDSPDNKYRVFIGPQNCSCARGTFCIHLLFVMLRVFQLEPSDPMLWRKTLKNFEVESLFQKYHSRRSSRIKAPSRNTIQKFVSRMSNSHTLSSSSTSTSSSENSIKDEEEQMCPICLLGMLDEESLTVCEDGCRNKLHHHCMSIWAEECRRNREPLICPLCRSKWRSHDFYSHELSSPVDSPSSLRAAQQQTVQQQPLAGSRRNQESNFNLTHYGTQQIPPAYKDLAEPWIQVFGMELVGCLFSRNWNVREMALRRLSHDVSGALLLANGESTGNSGGSSGSSPSGGATSGSSQTSISGDVVEACCSVLSMVCADPVYKVYVAALKTLRAMLVYTPCHSLAERIKLQRLLQPVVDTILVKCADANSRTSQLSISTLLELCKGQAGELAVGREILKAGSIGIGGVDYVLNCILGNQTESNNWQELLGRLCLIDRLLLEFPAEFYPHIVSTDVSQAEPVEIRYKKLLSLLTFALQSIDNSHSMVGKLSRRIYLSSARMVTTVPHVFSKLLEMLSVSSSTHFTRMRRRLMAIADEVEIAEAIQLGVEDTLDGQQDSFLQASVPNNYLETTENSSPECTVHLEKTGKGLCATKLSASSEDISERLASISVGPSSSTTTTTTTTEQPKPMVQTKGRPHSQCLNSSPLSHHSQLMFPALSTPSSSTPSVPAGTATDVSKHRLQGFIPCRIPSASPQTQRKFSLQFHRNCPENKDSDKLSPVFTQSRPLPSSNIHRPKPSRPTPGNTSKQGDPSKNSMTLDLNSSSKCDDSFGCSSNSSNAVIPSDETVFTPVEEKCRLDVNTELNSSIEDLLEASMPSSDTTVTFKSEVAVLSPEKAENDDTYKDDVNHNQKCKEKMEAEEEEALAIAMAMSASQDALPIVPQLQVENGEDIIIIQQDTPETLPGHTKAKQPYREDTEWLKGQQIGLGAFSSCYQAQDVGTGTLMAVKQVTYVRNTSSEQEEVVEALREEIRMMSHLNHPNIIRMLGATCEKSNYNLFIEWMAGGSVAHLLSKYGAFKESVVINYTEQLLRGLSYLHENQIIHRDVKGANLLIDSTGQRLRIADFGAAARLASKGTGAGEFQGQLLGTIAFMAPEVLRGQQYGRSCDVWSVGCAIIEMACAKPPWNAEKHSNHLALIFKIASATTAPSIPSHLSPGLRDVALRCLELQPQDRPPSRELLKHPVFRTTW
